# Assay results published in patent US12649776B2, “Scaffold proteins and therapeutic nanoconjugates based on nidogen” (UNIVERSITAT AUTÒNOMA DE BARCELONA, priority 2019, dated 2026).
# What was measured:
# [1] = literature value; cited from earlier work
# [2] = Volume size distribution of protein nanoparticles and nanoconjugates by Dynamic Light Scattering (DLS); assay type: physicochemical; details: self-assembled material in storage (carbonate) buffer
# Experimental: Volume size distribution of all protein nanoparticles and nanoconjugates were determined by Dynamic Light Scattering (DLS) at 633 nm in a Zetasizer Nano ZS (Malvern Instruments) in triplicate.
# Volume size distribution of protein nanoparticles was determined in a Zetasizer Nano ZS (Malvern Instruments) by Dynamic Light Scattering (DLS) at 633 nm in triplicates.
# The integrity of the recombinant proteins was checked by mass spectrometry (MALDI-TOF), TGX (Tris-Glycine eXtended) Stain-Free acrylamide gels electrophoresis (BioRad) and Western Blot analysis using anti-His monoclonal antibody (1:1000; Santa Cruz, ref. 57598). Protein concentration was determined by Bradford (Biorad) assay with an Albumin (Roche) standard curve. GFP fluorescence emission (510 nm) was determined on purified proteins with a Cary Eclipse fluorescence spectrophotometer (Agilent Technologies) using an excitation wavelength of 450 nm. The volume and size distribution of nanoparticles were measured by dynamic light scattering (DLS) at 633 nm through a Zetasizer Nano ZS (Malvern Instruments) using quartz cuvettes.
# CXCR4+ HeLa cells = experiment: Protein internalization of EPIX4 / T22 / biparatopic nanoparticles (flow cytometry, AMD3100 competition, confocal); assay type: cell-based, human; details: 1 μM
# Experimental: (§1) Experiments were performed in CXCR4+ cervical and colorectal cell lines (HeLa and SW1417, respectively). HeLa cells were cultured in Eagle's Minimum Essential Medium (Gibco) and SW1417 in Dulbecco's Modified Eagle's Medium (Gibco). Both cell lines were supplemented with 10% fetal bovine serum (Gibco) and incubated in a humidified atmosphere at 37° C. and 5% (HeLa) or 10% (SW1417) of CO2.
# (§2) For testing protein internalization, cells were seeded in 24-well plates (Nunc) (30000 cells wells^−1) for 24 h. Briefly, the medium was removed, and cells were washed with PBS. Then protein was incubated at 1 and 2 μM, diluted in OptiPro medium supplemented with L-Glutamine and incubated at different times, at suitable cell line conditions. Then, harsh trypsin digestion (1 mg ml^−1 for 15 min) (Gibco) was carried out to remove protein particles bound to the outer size of the cell membranes. Intracellular green fluorescence was analyzed by flow cytometry on an FACS-Calibur system (Becton Dickinson) using a 15 mW air-cooled argon ion laser at 488 nm excitation. Fluorescence emission was measured with a D detector (530/30 nm band pass filter), and manually corrected by the specific fluorescence of purified protein, to get data representative of the amount of internalized protein for comparative purposes. […]
# CXCR4+ SW1417 cells = experiment: Protein internalization of EPIX4 / T22 / biparatopic nanoparticles (flow cytometry); assay type: cell-based, human; details: 1 μM
# Experimental: as §1, §2
Substance,Tm [1] [° C.^],"Tonset, 1 [1] [°C]","Nanoparticle size (volume size distribution, DLS) [2] [nm]",Time course of cell uptake (CXCR4+ HeLa cells),Time course of cell uptake (CXCR4+ SW1417 cells)
"Human Collagen Type I: human collagen type I, literature comparator (Leikina et al)",40.3,38.2,–,–,–
"T22-GFP-H6: Modular protein: T22 ligand, Green Fluorescent Protein scaffold, C-terminal poly-histidine [reference compound]",–,75,~11,high uptake at short times,high uptake at short times
